According to patent US20090285813A1:

molecular target: human CD3 (human) (UniProt P07766); assay: cell-based or functional assay
Sequence (P07766 23-207): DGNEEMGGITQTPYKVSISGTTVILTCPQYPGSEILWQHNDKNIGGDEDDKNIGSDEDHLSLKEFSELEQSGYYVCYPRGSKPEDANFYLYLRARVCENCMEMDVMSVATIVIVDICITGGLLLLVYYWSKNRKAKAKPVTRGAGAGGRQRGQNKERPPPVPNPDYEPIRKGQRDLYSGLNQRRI

Row | Binder | Apo-One Apoptosis Assay, 12.5 ng/ml | Apo-One Apoptosis Assay, 12.5 ng/ml, second block (ratio to Fc null) | Apo-One Apoptosis Assay, 25 ng/ml | Apo-One Apoptosis Assay, 25 ng/ml, second block (ratio to Fc null) | Apo-One Apoptosis Assay, 50 ng/ml | Apo-One Apoptosis Assay, 50 ng/ml, second block (ratio to Fc null)
1 | anti-CD3 HuFR antibody 6 (heavy chain BD20611, light chain BD21135) (antibody, part only; not given: Heavy stretch before framework 4, V domains shown, part only) VH, part: QVQLVESGAEVKKPGASVKVSCKASGYTFTRYTMHWVRQAPGKGLEWMGYINPSRGYTNYNQKFKDRLTISKDTSKNQVVLTMTNMDPVDTATYYCARYYDDHYCLDYVTVSSASTKGPS VL: EIVMTQSPATLSVSPGERATLSCSASSSVSYMNWYQQKPGQAPRLLIYDTSKLASGVPDRFSGSGSGTDFTLTISSLQAEDVAVYYCQQWSSNPFTFGQGTKVEIKFGQGTKVEIKR | 1280 | 2.6 | 2220 | 3.1 | 3500 | 2.9
2 | anti-CD3 HuFR antibody 8 (heavy chain BD20611, light chain BD21137) (antibody, part only; not given: few VH framework 4 residues, V domains shown, part only) VH, part: QVQLVESGAEVKKPGASVKVSCKASGYTFTRYTMHWVRQAPGKGLEWMGYINPSRGYTNYNQKFKDRLTISKDTSKNQVVLTMTNMDPVDTATYYCARYYDDHYCLDYVTVSSASTKGPS VL: DIQMTQSPSTLSASVGDRVTITCSASSSVSYMNWYQQKPGQPPKLLIYDTSKLASGVPSRFSGSGSGTDFTFTISSLQPEDIATYYCQQWSSNPFTFGQGTKVEIKFGQGTKVEIKR | 969 | 2 | 1630 | 2.2 | 2560 | 2.1
3 | anti-CD3 HuFR antibody 1 (heavy chain BD20610, light chain BD21130) (antibody, part only; not given: Heavy stretch before framework 4, V domains shown, part only) VH, part: QVQLVESGAEVKKPGASVKVSCKASGYTFTRYTMHWVRQAPGKGLEWMGYINPSRGYTNYNQKFKDRVTISVDTSKNQFSLKLSSVTAADTAVYYCARYYDDHYCLDYVTVSSASTKGPS VL: DIQMTQSPSSLSASVGDRVTITCSASSSVSYMNWYQQKPGQPPKLLIYDTSKLASGVPDRFSGSGSGTDFTLKISRVEAEDVGVYYCQQWSSNPFTFGQGTKVEIKFGQGTKVEIKR | 797 | 1.6 | 1220 | 1.7 | 1750 | 1.5
4 | anti-CD3 HuFR antibody 9 (heavy chain BD20613, light chain BD21138) (antibody, part only; not given: few VH framework 4 residues, V domains shown, part only) VH, part: QVQLQESGPGLVKPSETLSLTCAVSGYTFTRYTMHWVRQAPGKGLEWVGYINPSRGYTNYNQKFKDRFTISRDDSKNTAYLQMNSLKTEDTAVYYCTRYYDDHYCLDYVTVSSASTKGPS VL: DIQMTQSPSTLSASVGDRVTITCSASSSVSYMNWYQQKPGKAPKLLIYDTSKLASGVPDRFSGSGSGTDFTLKISRVEAEDVGVYYCQQWSSNPFTFGQGTKVEIKFGQGTKVEIKR | 885 | 1.8 | 1380 | 1.9 | 2040 | 1.7

Further lines, results first:

Row | Apo-One Apoptosis Assay, 12.5 ng/ml | Apo-One Apoptosis Assay, 12.5 ng/ml, second block (ratio to Fc null) | Apo-One Apoptosis Assay, 25 ng/ml | Apo-One Apoptosis Assay, 25 ng/ml, second block (ratio to Fc null) | Apo-One Apoptosis Assay, 50 ng/ml | Apo-One Apoptosis Assay, 50 ng/ml, second block (ratio to Fc null) | Binder
5 | 649 | 1.3 | 854 | 1.2 | 1130 | 1 | anti-CD3 HuFR antibody 3 (heavy chain BD20611, light chain BD21132) (antibody, part only; not given: Heavy stretch before framework 4, V domains shown, part only) VH, part: QVQLVESGAEVKKPGASVKVSCKASGYTFTRYTMHWVRQAPGKGLEWMGYINPSRGYTNYNQKFKDRLTISKDTSKNQVVLTMTNMDPVDTATYYCARYYDDHYCLDYVTVSSASTKGPS VL: EIVLTQSPATLSLSPGERATLSCSASSSVSYMNWYQQKPGKAPKLLIYDTSKLASGVPSRFSGSGSGTEFTLTISSLQPDDFATYYCQQWSSNPFTFGQGTKVEIKFGQGTKVEIKR
6 | 1390 | 2.8 | 2350 | 3.2 | 3300 | 2.8 | anti-CD3 HuFR antibody 4 (heavy chain BD20611, light chain BD21133) (antibody, part only; not given: Heavy stretch before framework 4, V domains shown, part only) VH, part: QVQLVESGAEVKKPGASVKVSCKASGYTFTRYTMHWVRQAPGKGLEWMGYINPSRGYTNYNQKFKDRLTISKDTSKNQVVLTMTNMDPVDTATYYCARYYDDHYCLDYVTVSSASTKGPS VL: DIVMTQSPLSLPVTPGEPASISCSASSSVSYMNWYQQKPGQPPKLLIYDTSKLASGVPSRFSGSGSGTEFTLTISSLQPDDFATYYCQQWSSNPFTFGQGTKVEIKFGQGTKVEIKR
7 | 1160 | 2.4 | 1660 | 2.3 | 2160 | 1.8 | anti-CD3 HuFR antibody 5 (heavy chain BD20611, light chain BD21134) (antibody, part only; not given: Heavy stretch before framework 4, V domains shown, part only) VH, part: QVQLVESGAEVKKPGASVKVSCKASGYTFTRYTMHWVRQAPGKGLEWMGYINPSRGYTNYNQKFKDRLTISKDTSKNQVVLTMTNMDPVDTATYYCARYYDDHYCLDYVTVSSASTKGPS VL: EIVMTQSPATLSVSPGERATLSCSASSSVSYMNWYQQKPGQPPKLLIYDTSKLASGVPSRFSGSGSGTEFTLTISSLQPDDFATYYCQQWSSNPFTFGQGTKVEIKFGQGTKVEIKR
8 | 2270 | 4.6 | 3480 | 4.8 | 4740 | 4 | anti-CD3 HuFR antibody 7 (heavy chain BD20611, light chain BD21136) (antibody, part only; not given: Heavy stretch before framework 4, V domains shown, part only) VH, part: QVQLVESGAEVKKPGASVKVSCKASGYTFTRYTMHWVRQAPGKGLEWMGYINPSRGYTNYNQKFKDRLTISKDTSKNQVVLTMTNMDPVDTATYYCARYYDDHYCLDYVTVSSASTKGPS VL: DIQMTQSPSTLSASVGDRVTITCSASSSVSYMNWYQQKPGKAPKLLIYDTSKLASGIPDRFSGSGSGTDFTLTISRLEPEDFAVYYCQQWSSNPFTFGQGTKVEIKFGQGTKVEIKR
9 | 854 | 1.7 | 1440 | 2 | 2160 | 1.8 | anti-CD3 HuFR antibody 2 (heavy chain BD20613, light chain BD21131) (antibody, part only; not given: few VH framework 4 residues, V domains shown, part only) VH, part: QVQLQESGPGLVKPSETLSLTCAVSGYTFTRYTMHWVRQAPGKGLEWVGYINPSRGYTNYNQKFKDRFTISRDDSKNTAYLQMNSLKTEDTAVYYCTRYYDDHYCLDYVTVSSASTKGPS VL: DIQMTQSPSTLSASVGDRVTITCSASSSVSYMNWYQQKPGQAPRLLIYDTSKLASGVPDRFSGSGSGTDFTLKISRVEAEDVGVYYCQQWSSNPFTFGQGTKVEIKFGQGTKVEIKR
